Test results taken from patent US20140056903A1 (Regeneron, published 2014).
Positions count from the first letter of the chain named. Names and notes keep the numbering of the source.

B1: H4H2341S (antibody, human IgG4, V domains shown)
VH: EVQLVESGAEVKKSGSSVKVSCKASGGTFSRYAISWVRQAPGQGLEWMGGIIPLFGTLNYAQKFQGRVTLTTDESTSTAYMELSSLRSEDTAVYYCAVFYYGSGSYRNWFDPWGQGTLVTVSS
VL: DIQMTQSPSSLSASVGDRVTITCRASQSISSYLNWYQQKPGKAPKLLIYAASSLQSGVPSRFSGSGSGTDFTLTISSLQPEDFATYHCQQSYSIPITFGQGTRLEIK
notes: human IgG4 Fc (H4H)
B2: H4H2345S (antibody, human IgG4, V domains shown)
VH: EVQLVESGGGLVRPGRSLRLSCAASGFTFDNYAMHWVRQVPGKGLEWVSGITWNSVSLGYADSVKGRFTISRDNAQNSLYLQMNSLRTVDTALYYCAKDRWGGSYYFDFWGQGTLVTVSS
VL: DIVMTQSPSSLSASVGDRVTITCRASQGISNYLAWYQQKPGKVPKLLIYSASTLQSGVPSRFSGSGSGTDFTLTISNLQPEDFATFFCQKYNSAPTFGGGTKVEIK
notes: human IgG4 Fc (H4H)
B3: H4H2344S (antibody, human IgG4, V domains shown)
VH: EVQLVESGGGVVQPGRSLRLSCAASGFSFSDYVMHWVRQAPGKGLEWVASIWFDGSNEFYADSVKGRFTISRDNSKNTLFLQMNSLRAEDTAVYYCAKKGVLVATSAFDIWGQGTMVTVSS
VL: DIQMTQSPSSLSASVGDRVTITCRASQSINNYLNWYHQKPGKAPKLLIYAASSLQSGVPSRFSGSGSGTDYTLTISSLQPEDFGNYYCQQSYRTSMYTFGQGTKVEIK
notes: human IgG4 Fc (H4H)
B4: H4H2354S (antibody, human IgG4, V domains shown)
VH: B3 VH with E1Q
VL: B3 VL with M4L
notes: human IgG4 Fc (H4H); also called H4H2354S-1
B5: H4H2346S (antibody, human IgG4, V domains shown)
VH: B3 VH with E1Q
VL: B3 VL with D1E, Q3V
notes: human IgG4 Fc (H4H)
B6: H4H2293P (antibody, human IgG4, V domains shown)
VH: B3 VH with E1Q, F59L, D109H
VL: B3 VL with D1A, S28N, K45N, R93S, V105L
notes: human IgG4 Fc (H4H)
B7: H4H2236N3 (antibody, human IgG4, V domains shown)
VH: EVQLLESGGNLVQPGGSLRLSCAASGFTFSSYAMTWVRQAPGKGLEWVSTISGSGTSTYYADSVKGRFTISRDNSRDTVFLQMNSLRAEDTAVYYCSKPSALRFLHWLAMDVWGQGTLVTVSS
VL: DIQMTQSPSSLSAFVGDRVTITCRASQDIRNYLDWFQQKPGKAPKSLIYAASNLQSGVPSRFGGSGSGTDFTLTINSLQPEDFVTYYCQQYNSYPPTFGGGTKVEIK
notes: human IgG4 Fc (H4H)
B8: H4H2350P (antibody, human IgG4, V domains shown)
VH: QVQLQESGPGLVKPSETLSLTCTVSGGSISTYYWSWFRQPPGKGLEWIGYIYYSGSTNHNPSLKSRVTISVDTSKNQFSLKLRSVTAADTAVYYCARVGPVGWGSWGNFDYWGQGTLVTVSS
VL: DIQLTQSPSFLSASVGDRVTITCWASQGISSYLAWSQQKPGKAPKLLIYAASTLQSGVPSRFSGSGSGTEFTLTISSLQPEDFATYYCQQLNSYPWTFGQGTKVEIK
notes: human IgG4 Fc (H4H)
B9: H4H2291S (antibody, human IgG4, V domains shown)
VH: EVQLVESGGGLVQPGESLRLSCAASGFTFSNYAMSWVRQAPGKGLEWVSVISGSGGSTYYADSVKGRFTMSRDNSKNTLYLQMNSLRAEDTAVYYCAKPPSRAARYFNYGMDVWGQGTTVTVSS
VL: AIRMTQSPSSVSASVGDRVTITCRASQGISSWLAWYQQKPGKAPKLLIYAASSLQSGVPSRFSGSGSGTDFTLTISSLQPEDFATYYCQQANSFPFTFGGGTKVEIK
notes: human IgG4 Fc (H4H)
B10: H4H2296S (antibody, human IgG4, V domains shown)
VH: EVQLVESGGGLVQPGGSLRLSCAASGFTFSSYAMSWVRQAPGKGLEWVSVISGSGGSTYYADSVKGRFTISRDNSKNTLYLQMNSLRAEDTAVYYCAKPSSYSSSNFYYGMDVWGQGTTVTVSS
VL: B9 VL with A1D, R3V, Q55R, S76T, Q90H, A91T, G100P
notes: human IgG4 Fc (H4H)
B11: H4H2295S (antibody, human IgG4, V domains shown)
VH: EVQLVESGGGLVQAGGSLRLSCVASGFTFSSYAMSWVRQAPGKGLEWVSAISGSGGSTYSADSVKGRFTISRDNSKNTLYLQMNSLRAEDTAVYYCTKPSSYSSSNFYYGMDVWGQGTTVTVSS
VL: B9 VL with A1D, R3Q, A50T, G68R, A91T, F94L, F96L, G100P
notes: human IgG4 Fc (H4H)
B12: H4H2364S (antibody, human IgG4, V domains shown)
VH: B11 VH with V12E, A14P, V23A, A33V, A40V, A50V, S60Y, T97A, Y108H
VL: B9 VL with A1D, R3Q, S9Y, K42R, Q90K, A91T, G100P
notes: human IgG4 Fc (H4H)
B13: H4H2294S (antibody, human IgG4, V domains shown)
VH: B11 VH with A14P, V23A, A50V, S60Y, S63A, N77H, T118S
VL: B9 VL with A1D, R3Q, M4L, A91T, T97P, G100P, E105D
notes: human IgG4 Fc (H4H)

Tests used:
[1] = target: T1, human GFRα3 on HEK293/hGFRα3/hRET/SRE-luc cells (human, UniProt O60609 32-382); experiment: cell-based or functional assay
T1 sequence: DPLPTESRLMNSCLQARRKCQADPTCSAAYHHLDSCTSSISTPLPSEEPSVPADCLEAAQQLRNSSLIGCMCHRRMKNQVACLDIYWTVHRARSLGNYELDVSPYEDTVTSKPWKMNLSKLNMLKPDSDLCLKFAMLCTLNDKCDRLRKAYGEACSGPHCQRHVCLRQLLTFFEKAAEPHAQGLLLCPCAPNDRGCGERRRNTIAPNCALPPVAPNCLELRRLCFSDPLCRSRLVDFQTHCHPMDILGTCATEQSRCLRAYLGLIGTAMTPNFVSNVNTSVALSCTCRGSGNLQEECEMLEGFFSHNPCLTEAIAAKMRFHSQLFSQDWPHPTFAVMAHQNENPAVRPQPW

[2] = target: T2, human GFRα3 expressed with a C-terminal myc-myc-hexahistidine tag (human, UniProt O60609 32-374, biotinylated (sites not given) in ELISA format 2 and in the Octet cross-competition; not in SPR); experiment: Octet cross-competition; biotin-hGFRα3-mmH pre-saturated with first antibody H4H2295S
T2 construct: also called hGFRα3-mmh; hGFRα3-mmH
Procedure: (§1) A cross-competition assay was conducted to assess the ability of select antibodies to compete with one another for binding to human GFRα3 using an Octet RED384 biosensor (Fortebio Inc.). The entire experiment was performed at 25° C. with the flow rate of 1000 rpm in Octet HBST buffer (0.01 M HEPES pH7.4, 0.15M NaCl, 3 mM EDTA, 0.05% v/v Surfactant P20, 0.1 mg/mL BSA). To assess whether 2 antibodies were able to compete with one another for binding to their respective epitopes on biotinylated recombinant human GFRα3 expressed with a C-terminal myc-myc-hexahistidine tag (biotin-hGFRα3-mmH; SEQ ID:370), around ˜1.2 nm of biotin-hGFRα3-mmH was first captured onto streptavidin-coated Octet sensor tips (Fortebio Inc, #18-5019) by submerging the tips for 1 minute into a 10 μg/mL solution of biotin-hGFRα3-mmH. The antigen coated sensor tips were then placed into wells containing 25 μg/mL solution of a first anti-GFRα3 monoclonal antibody for 4 minutes to saturate the biotin-hGFRα3-mmH surface. The sensor tips were then subsequently dipped into wells containing 25 μ/mL solution of a second anti-GFRα3 monoclonal antibody. The sensor tips were washed in Octet HBST buffer in between every step of the experiment. The real-time binding response was monitored during the course of the experiment and the binding response at the end of every step was recorded as shown in FIG. 9. The response of mAb-2 binding to biotin-hGFRα3-mmH pre-complexed with the first antibody was compared and competitive/non-competitive behavior of different anti-GFRα3 monoclonal antibodies was determined.

[3] = target: T2, human GFRα3 expressed with a C-terminal …; experiment: Octet cross-competition; biotin-hGFRα3-mmH pre-saturated with first antibody H4H2212N
Procedure: as §1

[4] = target: T2, human GFRα3 expressed with a C-terminal …; experiment: Octet cross-competition; biotin-hGFRα3-mmH pre-saturated with first antibody H4H2294S
Procedure: as §1

[5] = target: T2, human GFRα3 expressed with a C-terminal …; experiment: Octet cross-competition; biotin-hGFRα3-mmH pre-saturated with first antibody H4H2355S
Procedure: as §1

[6] = target: T2, human GFRα3 expressed with a C-terminal …; experiment: Octet cross-competition; biotin-hGFRα3-mmH pre-saturated with first antibody H4H2296S
Procedure: as §1

[7] = target: T2, human GFRα3 expressed with a C-terminal …; experiment: Octet RED384; 25 µg/mL first antibody on streptavidin-captured biotin-hGFRα3-mmH
Procedure: as §1

[8] = target: T2, human GFRα3 expressed with a C-terminal …; experiment: Octet cross-competition; biotin-hGFRα3-mmH pre-saturated with first antibody H4H2342P
Procedure: as §1

Binder | IC50 (SRE-luc, HEK293/hGFRα3/hRET cells, 100 pM hARTEMIN-mmH) [1] [nM] | binding response of second antibody (nm) [2] [nm] | binding response of second antibody (nm) [3] [nm] | binding response of second antibody (nm) [4] [nm] | binding response of second antibody (nm) [5] [nm] | binding response of second antibody (nm) [6] [nm] | Amount of Antibody 1 bound (nm) [7] [nm] | binding response of second antibody (nm) [8] [nm]
B1 | 7.1 |  |  |  |  |  |  | 
B2 | 26 |  |  |  |  |  |  | 
B3 | 48 |  |  |  |  |  |  | 
B4 | 22 |  |  |  |  |  |  | 
B5 | 26 |  |  |  |  |  |  | 
B6 | 20 |  |  |  |  |  |  | 
B7 | 1.5 | 0.01 | 2.14 | 0.05 | 0.18 | 0.07 | 2.64 | 0.2
B8 |  | 1.35 | 1.36 | 1.42 | 1.44 | 1.27 | 3.31 | 1.46
B9 | 1.3 | 0.2 | 2.69 | 0.12 | 0.31 | 0.18 | 2.89 | 0.45
B10 | 1.4 | 0.07 | 2.36 | 0.04 | 0.18 | 0.07 | 2.88 | 0.28
B11 | 1.5 | 0.05 | 2.15 | 0.04 | 0.2 | 0.05 | 2.83 | 0.31
B12 | 2.3 |  |  |  |  |  |  | 
B13 |  | 0.02 | 2.12 | 0.02 | 0.16 | 0.04 | 2.91 | 0.23
